Measurements taken from patent US12269859B2, “Synthetic immune receptors and methods of use thereof” (Angeles Therapeutics, Inc., priority 2016, dated 2025).

B1: 012417-K04 (protein)
chain: MALPVTALLLPLALLLHAARPLEGKPIPNPLLGLDSTGSGEDLKNVFPPEVAVFEPSKAEIAHTQKATLVCLATGFYPDHVELSWWVNGKEVHSGVCTDPQPLKEQPALNDSRYCLSSRLRVSATFWQNPRNHFRCQVQFYGLSENDEWTQDRAKPVTQIVSAEAWGRADCGITSASYHQGVLSATILYEILLGKATLYAVLVSALVLMAMVKRKDSRGRAKRSGSGATNFSLLKQAGDVEENPGPTSMALPVTALLLPLALLLHAARPQIVLSQSPAILSASPGEKVTMTCRASSSVSYMHWYQQKPGSSPKPWIYATSNLASGVPARFSGSGSGTSYSFTISRVEAEDAATYYCQQWTFNPPTFGGGTRLEIKRTVAAGGGGSGGGGSGGGGSQAYLQQSGAELVRPGASVKMSCKASGYTFTSYNMHWVKQTPRQGLEWIGGIYPGNGDTSYNQKFKGKATLTVGKSSSTAYMQLSSLTSEDSAVYFCARYDYNYAMDYWGQGTSVTVSSASTREQKLISEEDGSGIQNPDPAVYQLRDSKSSDKSVCLFTDFDSQTNVSQSKDSDVYITDKCVLDMRSMDFKSNSAVAWSNKSDFACANAFNNSIIPEDTFFPSSDVPCDVKLVEKSFETDTNLNFQNLSVIGFRILLLKVAGFNLLMTLRLWSSRAKRSGSGVKQTLNFDLLKLAGDVESNPGPSRGHMTEYKPTVRLATRDDVPRAVRTLAAAFADYPATRHTVDPDRHIERVTELQELFLTRVGLDIGKVWVADDGAAVAVWTTPESVEAGAVFAEIGPRMAELSGSRLAAQQQMEGLLAPHRPKEPAWFLATVGVSPDHQGKGLGSAVVLPGVEAAERAGVPAFLETSAPRNLPFYERLGFTVTADVEVPEGPRTWCMTRKPGA
B2: 012517-Q12 (protein)
chain: MALPVTALLLPLALLLHAARPLEGKPIPNPLLGLDSTGSGEDLKNVFPPEVAVFEPSKAEIAHTQKATLVCLATGFYPDHVELSWWVNGKEVHSGVCTDPQPLKEQPALNDSRYCLSSRLRVSATFWQNPRNHFRCQVQFYGLSENDEWTQDRAKPVTQIVSAEAWGRADCGITSASYHQGVLSATILYEILLGKATLYAVLVSALVLMAMVKRKDSRGRAKRSGSGATNFSLLKQAGDVEENPGPTSMALPVTALLLPLALLLHAARPEIVLTQSPGTLSLSPGERATLSCRASSSVPYIHWYQQKPGQAPRLLIYATSALASGIPDRFSGSGSGTDFTLTISRLEPEDFAVYYCQQWLSNPPTFGQGTKLELKRGGGGSGGGGSGGGGSEVQLVQSGAEVKKPGESLKLSCKGSGRTFTSYNMHWVRQMPGKGLEWMGAIYPLTGDTSYNQKSKLQVTISADKSISTAYLQWSSLKASDTAMYYCARSTYVGGDWQFDVWGKGTTVTVSSTREQKLISEEDGSGIQNPDPAVYQLRDSKSSDKSVCLFTDFDSQTNVSQSKDSDVYITDKCVLDMRSMDFKSNSAVAWSNKSDFACANAFNNSIIPEDTFFPSSDVPCDVKLVEKSFETDTNLNFQNLSVIGFRILLLKVAGFNLLMTLRLWSSRAKRSGSGVKQTLNFDLLKLAGDVESNPGPSRGHMTEYKPTVRLATRDDVPRAVRTLAAAFADYPATRHTVDPDRHIERVTELQELFLTRVGLDIGKVWVADDGAAVAVWTTPESVEAGAVFAEIGPRMAELSGSRLAAQQQMEGLLAPHRPKEPAWFLATVGVSPDHQGKGLGSAVVLPGVEAAERAGVPAFLETSAPRNLPFYERLGFTVTADVEVPEGPRTWCMTRKPGA
B3: 012417-J04 (protein)
chain: MALPVTALLLPLALLLHAARPLEGKPIPNPLLGLDSTGSGEDLKNVFPPEVAVFEPSKAEIAHTQKATLVCLATGFYPDHVELSWWVNGKEVHSGVCTDPQPLKEQPALNDSRYCLSSRLRVSATFWQNPRNHFRCQVQFYGLSENDEWTQDRAKPVTQIVSAEAWGRADCGITSASYHQGVLSATILYEILLGKATLYAVLVSALVLMAMVKRKDSRGRAKRSGSGATNFSLLKQAGDVEENPGPTSMALPVTALLLPLALLLHAARPSTVMTQSPDSLAVSLGERATINCKSSQSNSNDVAWYQQKPGQSPKVLIYFASNRYSGVPDRFSGSGYGTDFTLTISSLQAEDVAVYFCQQDYSSPLTFGAGTKLELKRADAGGGGSGGGGSGGGGSQIQLVQSGSELKKPGASVKVSCKASGYTFTNFGVNWVRQAPGKGLEWMGWINTYTGEPSYAQGFTGRFVFSLDASVSTAYLQISSLKAEDTATYFCTRRTNYYGTSYYYAMDYWGQGTTVTVSSAKTTTREQKLISEEDGSGIQNPDPAVYQLRDSKSSDKSVCLFTDFDSQTNVSQSKDSDVYITDKCVLDMRSMDFKSNSAVAWSNKSDFACANAFNNSIIPEDTFFPSSDVPCDVKLVEKSFETDTNLNFQNLSVIGFRILLLKVAGFNLLMTLRLWSSRAKRSGSGVKQTLNFDLLKLAGDVESNPGPSRGHMTEYKPTVRLATRDDVPRAVRTLAAAFADYPATRHTVDPDRHIERVTELQELFLTRVGLDIGKVWVADDGAAVAVWTTPESVEAGAVFAEIGPRMAELSGSRLAAQQQMEGLLAPHRPKEPAWFLATVGVSPDHQGKGLGSAVVLPGVEAAERAGVPAFLETSAPRNLPFYERLGFTVTADVEVPEGPRTWCMTRKPGA
B4: 101416-A05 (protein)
chain: MALPVTALLLPLALLLHAARPQSVLTQPPSVSGAPGQRVTISCTGSSSNIGAGFDVHWYQQLPGTAPKLLIYGNSNRPSGVPDRFSGSKSGTSASLAITGLQAEDEADYYCQSYDSSLSGYVFGTGTKVTVLGLEEQKLISEEDLGSGEDLKNVFPPEVAVFEPSKAEIAHTQKATLVCLATGFYPDHVELSWWVNGKEVHSGVCTDPQPLKEQPALNDSRYCLSSRLRVSATFWQNPRNHFRCQVQFYGLSENDEWTQDRAKPVTQIVSAEAWGRADCGITSASYHQGVLSATILYEILLGKATLYAVLVSALVLMAMVKRKDSRGRAKRSGSGATNFSLLKQAGDVEENPGPTSMDWIWRILFLVGAATGAHSFEQVQLVQSGAEVKKPGASVKVSCKASGYTFTDYYMHWVRQAPGQRLEWMGWINPNSGGTNYAQKFQDRITVTRDTSSNTGYMELTRLRSDDTAVYYCARSPYSGVLDKWGQGTLVTVSSTREQKLISEEDLGSGIQNPDPAVYQLRDSKSSDKSVCLFTDFDSQTNVSQSKDSDVYITDKCVLDMRSMDFKSNSAVAWSNKSDFACANAFNNSIIPEDTFFPSSDVPCDVKLVEKSFETDTNLNFQNLSVIGFRILLLKVAGFNLLMTLRLWSSRAKRSGSGVKQTLNFDLLKLAGDVESNPGPSRGHMTEYKPTVRLATRDDVPRAVRTLAAAFADYPATRHTVDPDRHIERVTELQELFLTRVGLDIGKVWVADDGAAVAVWTTPESVEAGAVFAEIGPRMAELSGSRLAAQQQMEGLLAPHRPKEPAWFLATVGVSPDHQGKGLGSAVVLPGVEAAERAGVPAFLETSAPRNLPFYERLGFTVTADVEVPEGPRTWCMTRKPGA
modifications: Synthetic Immune Receptor (SIR)
B5: 092517-F01 (protein)
chain: MALPVTALLLPLALLLHAARPLEGKPIPNPLLGLDSTGSGEDLKNVFPPEVAVFEPSKAEIAHTQKATLVCLATGFYPDHVELSWWVNGKEVHSGVCTDPQPLKEQPALNDSRYCLSSRLRVSATFWQNPRNHFRCQVQFYGLSENDEWTQDRAKPVTQIVSAEAWGRADCGITSASYHQGVLSATILYEILLGKATLYAVLVSALVLMAMVKRKDSRGRAKRSGSGATNFSLLKQAGDVEENPGPTSMALPVTALLLPLALLLHAARPDVVMTQSPSSLSASVGDRVTITCRASQDISKYLNWYQQKPGKAPKLLIYHTSRLHSGVPSRFSGSGSGTDFTLTISSLQPEDFATYYCQQGNTLPYTFGGGTKVEIKGGGGSGGGGSGGGGSQVQLQESGPGLVKPSQTLSLTCTVSGVSLPDYGVSWIRQPPGKGLEWIGVIWGSETTYYNSALKSRVLISVDTSKNQVSLKLSSVTAADTAVYYCARHYYYGGSYAMDYWGQGTTVTVSSTREQKLISEEDGSGIQNPDPAVYQLRDSKSSDKSVCLFTDFDSQTNVSQSKDSDVYITDKCVLDMRSMDFKSNSAVAWSNKSDFACANAFNNSIIPEDTFFPSSDVPCDVKLVEKSFETDTNLNFQNLSVIGFRILLLKVAGFNLLMTLRLWSSRAKRSGSGVKQTLNFDLLKLAGDVESNPGPSRGHMTEYKPTVRLATRDDVPRAVRTLAAAFADYPATRHTVDPDRHIERVTELQELFLTRVGLDIGKVWVADDGAAVAVWTTPESVEAGAVFAEIGPRMAELSGSRLAAQQQMEGLLAPHRPKEPAWFLATVGVSPDHQGKGLGSAVVLPGVEAAERAGVPAFLETSAPRNLPFYERLGFTVTADVEVPEGPRTWCMTRKPGA
B6: 022817-T04 (protein)
chain: MALPVTALLLPLALLLHAARPEIVLTQSPATLSLSPGERATLSCRASQSVSSYLAWYQQKPGQAPRLLIYDASNRATGIPARFSGSGSGTDFTLTISSLEPEDFAVYYCQQRSNWPITFGQGTRLEIKLEGKPIPNPLLGLDSTGSGEDLKNVFPPEVAVFEPSKAEIAHTQKATLVCLATGFYPDHVELSWWVNGKEVHSGVCTDPQPLKEQPALNDSRYCLSSRLRVSATFWQNPRNHFRCQVQFYGLSENDEWTQDRAKPVTQIVSAEAWGRADCGITSASYHQGVLSATILYEILLGKATLYAVLVSALVLMAMVKRKDSRGRAKRSGSGATNFSLLKQAGDVEENPGPTSMDWIWRILFLVGAATGAHSFEEVQLVESGGGLVQPDRSLRLSCAASGFTFHDYAMHWVRQAPGKGLEWVSTISWNSGTIGYADSVKGRFTISRDNAKNSLYLQMNSLRAEDTALYYCAKDIQYGNYYYGMDVWGQGTTVTVSSTREQKLISEEDGSGIQNPDPAVYQLRDSKSSDKSVCLFTDFDSQTNVSQSKDSDVYITDKCVLDMRSMDFKSNSAVAWSNKSDFACANAFNNSIIPEDTFFPSSDVPCDVKLVEKSFETDTNLNFQNLSVIGFRILLLKVAGFNLLMTLRLWSSRAKRSGSGVKQTLNFDLLKLAGDVESNPGPSRGHMTEYKPTVRLATRDDVPRAVRTLAAAFADYPATRHTVDPDRHIERVTELQELFLTRVGLDIGKVWVADDGAAVAVWTTPESVEAGAVFAEIGPRMAELSGSRLAAQQQMEGLLAPHRPKEPAWFLATVGVSPDHQGKGLGSAVVLPGVEAAERAGVPAFLETSAPRNLPFYERLGFTVTADVEVPEGPRTWCMTRKPGA

Test system: target antigen-expressing cell line
Assay: Jurkat NFAT-GFP assay, coculture with target cell lines expressing the respective target antigen (summary Table 10A)
Format: cell-based, human
Set-up: key: The signs +/−, +, 2+ etc. after the name of the cell lines indicate the relative degree of positivity on the Jurkat-NFAT-GFP assay as measured by the % GFP positive cells; +: relative degree of positivity on the Jurkat-NFAT-GFP assay as measured by the % GFP positive cells; 2+: relative degree of positivity on the Jurkat-NFAT-GFP assay as measured by the % GFP positive cells
Conditions: relative % GFP positive cells; for NFAT-GFP ASSAY Positive Cell lines: RAJI: SIR-expressing Jurkat-NFAT-GFP cells cocultured with RAJI; for NFAT-GFP ASSAY Positive Cell lines: NALM6: SIR-expressing Jurkat-NFAT-GFP cells cocultured with NALM6
In short: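 Coculture of SIR-bearing Jurkat NFAT-GFP reporters with target cells, ~1:2 E:T, ~4–18 h. FACS quantified % GFP+ cells, ranked semi-quantitatively against parental Jurkat-NFAT-GFP.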

Molecule | NFAT-GFP ASSAY Positive Cell lines: RAJI | NFAT-GFP ASSAY Positive Cell lines: U266 (SIR-expressing Jurkat-NFAT-GFP cells cocultured with U266) | NFAT-GFP ASSAY Positive Cell lines: NALM6
B1 | RAJI (+) | – | –
B2 | RAJI (+) | – | –
B3 | RAJI (+) | – | –
B4 | – | U266 (+) | –
B5 | RAJI (+), NALM6 (+) | – | RAJI (+), NALM6 (+)
B6 | – | – | (2+)
